Article PMC4894546 (Nature structural & molecular biology, 2016)

T1: NEIL2 (Homo sapiens, UniProt Q969S2 1-332)
T1 sequence: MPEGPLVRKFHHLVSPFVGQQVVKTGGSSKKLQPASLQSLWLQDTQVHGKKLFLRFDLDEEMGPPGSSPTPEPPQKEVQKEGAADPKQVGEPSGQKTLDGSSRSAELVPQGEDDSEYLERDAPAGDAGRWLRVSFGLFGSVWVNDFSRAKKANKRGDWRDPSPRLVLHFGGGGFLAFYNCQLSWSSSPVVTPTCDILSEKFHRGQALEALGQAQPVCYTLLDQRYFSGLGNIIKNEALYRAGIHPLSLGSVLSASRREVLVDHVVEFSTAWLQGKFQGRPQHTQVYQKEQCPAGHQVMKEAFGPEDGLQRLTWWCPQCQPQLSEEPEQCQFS

B1: 20mer_dC duplex (unmodified) (dsDNA)
DNA 1: CGCTAGGATCCGGCCCCGCC
DNA 2: GGCGGGGCCGGATCCTAGCG
B2: 20mer_5caC duplex (5caC:G) (dsDNA)
DNA 1: CGCTAGGATCCGGCCCCGCC
DNA 2: GGCGGGGCCGGATCCTAGCG
modifications: 5-carboxylcytosine at position 11 of strand 1 (hemi-modified)
B3: 20mer_5fC duplex (5fC:G) (dsDNA)
DNA 1: CGCTAGGATCCGGCCCCGCC
DNA 2: GGCGGGGCCGGATCCTAGCG
modifications: 5-formylcytosine at position 11 of strand 1 (hemi-modified)
B4: human NEIL2 DNA glycosylase, recombinant (enzyme, UniProt Q969S2 1-332, looked up)
chain: T1 sequence

Key:
NEIL1 [1] = biological target: T2, NEIL1 (Homo sapiens, UniProt Q96FI4 1-390); assay: EMSA
T2 sequence (Q96FI4 whole entry): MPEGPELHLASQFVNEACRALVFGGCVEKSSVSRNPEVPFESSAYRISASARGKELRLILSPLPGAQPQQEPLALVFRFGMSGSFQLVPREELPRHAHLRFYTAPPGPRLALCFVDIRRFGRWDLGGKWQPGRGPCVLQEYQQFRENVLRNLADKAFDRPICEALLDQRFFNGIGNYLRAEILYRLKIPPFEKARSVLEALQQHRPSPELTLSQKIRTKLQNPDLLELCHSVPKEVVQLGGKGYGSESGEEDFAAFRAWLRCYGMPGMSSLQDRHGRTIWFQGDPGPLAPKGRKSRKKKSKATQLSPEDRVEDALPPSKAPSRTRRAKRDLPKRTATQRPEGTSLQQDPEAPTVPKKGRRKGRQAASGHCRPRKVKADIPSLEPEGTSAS

NEIL2 [2] = biological target: T1, NEIL2; assay: EMSA
NEIL2 [3] = biological target: T1, NEIL2; assay: EMSA; remark: listed apart in the source
NEIL1 [4] = biological target: T2, NEIL1; assay: EMSA; remark: listed apart in the source
TDG = TDG (Homo sapiens, UniProt Q13569 1-410); assay: EMSA
TDG, sequence (Q13569 whole entry): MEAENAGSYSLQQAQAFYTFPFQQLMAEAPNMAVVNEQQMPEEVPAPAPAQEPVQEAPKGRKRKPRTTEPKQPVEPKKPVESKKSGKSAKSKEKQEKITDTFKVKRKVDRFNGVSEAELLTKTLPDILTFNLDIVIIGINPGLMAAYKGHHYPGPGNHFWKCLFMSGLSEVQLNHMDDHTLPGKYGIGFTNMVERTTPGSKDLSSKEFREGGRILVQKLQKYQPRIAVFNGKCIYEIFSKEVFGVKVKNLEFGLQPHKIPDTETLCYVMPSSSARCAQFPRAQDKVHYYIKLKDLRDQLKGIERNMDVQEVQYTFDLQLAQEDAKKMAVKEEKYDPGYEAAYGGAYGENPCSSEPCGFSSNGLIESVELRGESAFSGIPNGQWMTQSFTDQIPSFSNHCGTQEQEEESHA

[5] = biological target: human thymine DNA glycosylase (TDG), recombinant (human, UniProt Q13569 1-410); assay: MST
human thymine DNA glycosylase (TDG), recombinant, sequence (Q13569 whole entry): as above

binding result [5]	Binder	binding signal (NEIL1 [1])	Kd (NEIL2 [2])	binding result (NEIL2 [3])	binding result (NEIL1 [4])	binding result (TDG)
	B1	3 fold lower affinity than AP site duplex	27 nM			
	B2			binds	binds	binds
	B3			binds	binds	binds
binds	B4					
